Laboratory results published in patent US20200199244A1 (published 2020).
Numbering of substitutions follows the chain as printed.

B1: BMS3h-112 (other)
VH: EVQLLESGGGLVQPGGSLRLSCAASGFTFGESDMKWVRQAPGKGLEWVSSISPNGWDTYYADSVKGRFTISRDNSKNTLYLQMNSLRAEDTAVYYCAKSPSSRLKFDYWGQGTLVTVSS
B2: BMS3h-33 (other)
VH: EVQLLESGGGLVQPGGSLRLSCAASGFTFLSYPMHWVRQAPGKGLEWVSSIDSRGSVTYYADSVKGRFTISRDNSKNTLYLQMNSLRAEDTAVYYCAKGHSWTFDYWGQGTLVTVSS
B3: BMS3h-131-6 (other)
VL: DIQMTVSPSSLSASVGDRVTITCRANSSILWALAWYQQKPGKAPKLLIESSSGLQSGVPSRFSGSGSGTDFTLTISSLQPEDFATYYCVQNAVWPGTFGQGTKVEIKR
B4: BMS3h-131-14 (other)
VL: B3 VL with V6Q, S67T, S77G, G99D
B5: BMS3h-52 (other)
VH: EVQLLESGGGLVQPGESLRLSCAASGFTFSAYDMTWVRQAPGKGLEWVSRINPTGSYTYYADSVKGRFTISRDNSKNTLYLQMNSLRAEDTAVYYCAKAKIPNLVFDYWGQGTLVTVSS
B6: BMS3h-193 (other)
VL: DIQMTQSPSSLSASVGDRVTITCRASQTIERRLNWYQQKPGKAPKLLIYLASRLQSGVPSRFSGSGSGTDFTLTISSLQPEDFATYYCHQYASPPLTFGQGTKVEIKR
B7: BMS3h-193-12 (other)
VL: B6 VL with A92E
B8: BMS3h-193-16 (other)
VL: B6 VL with T28A, F98L
B9: BMS3h-193-19 (other)
VL: B6 VL with D70E, A92E
B10: BMS3h-8 (other)
VH: EVQLLESGGGLVQPGGSLRLSCAASGFTFPSEEMSWVRQAPGKGLEWVSRISADGANTYYADSVKGRFTISRDNSKNTLYLQMNSLRAEDAAVYYCAKGRVPDLLFDYWGQGTLVTVSS
B11: BMS3h-28 (other)
VH: EVQLLESGGGLVQPGGSLRLSCAASGFTFGDVPMSWVRQAPGKGLEWVSRIDPYGSNTYYADSVKGRFTISRDNSKNTLYLQMNSLRAEDTAVYYCAKGIMPSLTFDYWGQGTLVTVSS
B12: BMS3h-88 (other)
VH: EVQLLESGGGLVQPGGSLRLSCAASGFTFHETEMTWVRQAPGKGLEWVSAINRLGQDTYYADSVKGRFTISRDNSKNTLYLQMNSLRAEDTAVYYCAKGRIPGLVFDYWGQGTLVTVSS
B13: BMS3h-56-258 (other)
VH: EVQLLESGGGLVQPGGSLRLSCAASGFTFRDYEMWWVRQAPGKGLERVSAINPQGTRTYYADSVKGRFTISRDNSKNTLYLQMNSLRAEDTAVYYCAKLPFYFHEWGQGTLVTVSS
B14: BMS3h-56-265 (other)
VH: B13 VH with F101Q, Y102L, H104Q, E105D
B15: BMS3h-56-269 (other)
VH: B13 VH with Y102R, H104S, E105D, W106R
B16: BMS3h-56-262 (other)
VH: B13 VH with F101Q, Y102L, E105D, W106R
B17: BMS3h-56-8 (other)
VH: B13 VH with L18R, Y102T, H104E, E105D
B18: BMS3h-56-19 (other)
VH: B13 VH with Y95H, Y102T, H104E, E105D
B19: BMS3h-56-9 (other)
VH: B13 VH with K65M, Y102M, H104D, E105D, W106R
B20: BMS3h-56-6 (other)
VH: B13 VH with T28S, V37Y, Y102I, H104D, E105N, W106R
B21: BMS3h-56-266 (other)
VH: B13 VH with Y102F
B22: BMS3h-56-21 (other)
VH: B13 VH with A97L, Y102T, H104E, E105D
B23: BMS3h-56-261 (other)
VH: B13 VH with Y102F, H104Q
B24: BMS3h-56-15 (other)
VH: B13 VH with Q39R, Y102T, H104E, E105D
B25: BMS3h-56-270 (other)
VH: B13 VH with F101T, Y102L, H104Q, E105D
B26: BMS3h-56-7 (other)
VH: B13 VH with A92S, Y95H, L99P, Y102I, H104G, E105D, Q108P
B27: BMS3h-5 (other)
VH: EVQLLESGGGLVQPGGSLRLSCAASGFTFDEHDMSWVRQAPGKGLEWVSRIGPDGFHTYYADSVKGRFTISRDNSKNTLYLQMNSLRAEDTAVYYCAKGRIPTLHFDYWGQGTLVTVSS
B28: BMS3h-102 (other)
VH: B27 VH with D30S, H32A, D33E, S35N, G52T, P53T, F56D, H57S
B29: BMS3h-57 (other)
VH: EVQLLESGGGLVQPGGSLRLSCAASGFTFSHEDMTWVRQAPGKGLEWVSSISPNGWDTYYADSVKGRFTISRDNSKNTLYLQMNSLRAEDTAVYYCAKRTRSKFDYWGQGTLVTVSS
B30: BMS3h-208 (other)
VH: B29 VH with S30P, H31E, E32S, T35K, R99P, T100A, R101Q, S102V, K103L
B31: BMS3h-207 (other)
VH: EVQLLESGGGLVQPGGSLRLSCAASGFTFSNQDMTWVRQAPGKGLEWVSSIDSSGQLTYYADSVKGRFTISRDNSKNTLYLQMNSLRAEDTAVYYCAKVKSLARFDYWGQGTLVTVSS
B32: BMS3h-37-1 (other)
VH: EVQLLESGGGLVQPGGSLRLSCAASGFTFEWYEMQWVRQAPGKGLEWVSAISGDGYRTYYADSVKGRFTISRDNSMNTLYLQMNSLRAEDTAVYYCAKELGYFDYRGRGTLVTVSS
B33: BMS3h-37-202 (other)
VH: B32 VH with Q39R, Y56W, M76K, R106W
B34: BMS3h-37-212 (other)
VH: B32 VH with Q13R, Q39R, M76K, G101E, Y102F, R106W
B35: BMS3h-37-205 (other)
VH: B32 VH with Q39R, M76K, G101E, R106W
B36: BMS3h-37-207 (other)
VH: B32 VH with Q39R, M76K, G101A, Y102F, R106W
B37: BMS3h-37-206 (other)
VH: B32 VH with Q39R, M76K, E99G, G101E, R106W
B38: BMS3h-61 (other)
VH: EVQLLESGGGLVQPGGSLRLSCAASGFTFGTTEMAWVRQAPGKGLEWVSSIGSAGAWTYYADSVKGRFTISRDNSKNTLYLQMNSLRAEDTAVYYCAKIGGHPQGQFDYWGQGTLVTVSS
B39: BMS3h-48 (other)
VH: EVQLLESGGGLVQPGGSLRLSCAASGFTFADHGMTWVRQAPGKGLEWVSGIGPSGEATYYADSVKGRFTISRDNSKNTLYLQMNSLRAEDTAVYYCAKDRIPNLVFDYWGQGTLVTVSS

These binders were tested against human CD40 (human, UniProt P25942 21-277) (assay: cell-based or functional assay).
Sequence of human CD40 (P25942 21-277 limits assumed): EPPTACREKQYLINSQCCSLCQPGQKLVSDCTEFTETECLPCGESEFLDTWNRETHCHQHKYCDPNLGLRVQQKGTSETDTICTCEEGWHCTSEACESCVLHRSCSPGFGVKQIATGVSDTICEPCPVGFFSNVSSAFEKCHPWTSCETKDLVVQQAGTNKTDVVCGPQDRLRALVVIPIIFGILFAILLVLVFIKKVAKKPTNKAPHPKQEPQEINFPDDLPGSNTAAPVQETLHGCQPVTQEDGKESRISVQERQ

| hIZCD40L-driven Human B Cell Proliferation EC50 [nM] | CHO-hCD40L-driven Human B Cell Proliferation EC50 [nM] | CHO-hCD40L-driven DC Activation IL-12 EC50 [nM] | T-B cell MLR EC50 [nM] | Binder |
| --- | --- | --- | --- | --- |
| > 7000 | – | – | – | B1 |
| > 7000 | > 7000 | – | – | B2 |
| 141 | – | – | – | B3 |
| 24 | – | – | – | B4 |
| > 7000 | > 7000 | – | – | B5 |
| > 7000 | – | – | – | B6 |
| 277 | – | – | – | B7 |
| 387 | – | – | – | B8 |
| 233 | – | – | – | B9 |
| > 7000 | > 7000 | – | – | B10 |
| > 7000 | > 7000 | – | – | B11 |
| > 7000 | – | – | – | B12 |
| 0.079 | 11 | 1.52 | 8.7 | B13 |
| 0.36 | – | – | – | B14 |
| 0.14 | 15 | 1.8 | 9.7 | B15 |
| 0.31 | – | – | – | B16 |
| 5 | – | – | – | B17 |
| 3 | – | – | – | B18 |
| 3 | – | – | – | B19 |
| 4 | – | – | – | B20 |

| hIZCD40L-driven Human B Cell Proliferation EC50 [nM] | CHO-hCD40L-driven Human B Cell Proliferation EC50 [nM] | CHO-hCD40L-driven DC Activation IL-12 EC50 [nM] | T-B cell MLR EC50 [nM] | Binder |
| --- | --- | --- | --- | --- |
| 0.19 | 19.5 | 2.8 | 13.8 | B21 |
| 2 | – | – | – | B22 |
| 0.17 | 25.5 | 3 | 17 | B23 |
| 2 | – | – | – | B24 |
| 0.31 | – | – | – | B25 |
| 8 | – | – | – | B26 |
| > 7000 | > 7000 | – | – | B27 |
| > 7000 | – | – | – | B28 |
| > 7000 | > 7000 | – | – | B29 |
| > 7000 | – | – | – | B30 |
| > 7000 | – | – | – | B31 |
| 250 | – | – | – | B32 |
| 0.6 | – | 10 | 83 | B33 |
| 1 | – | – | – | B34 |
| 2 | – | 6.6 | – | B35 |
| 4 | – | 15.5 | – | B36 |
| 5 | – | 23 | – | B37 |
| > 7000 | > 7000 | – | – | B38 |
| > 7000 | > 7000 | – | – | B39 |
